B1: Esterase B (SEQ ID NO: 89): Bacillus subtilis Esterase (EstB without signal sequence) (protein, listed as Bacillus subtilis)
chain: ESVHNPVVLVHGISGASYNFFAIKNYLISQGWQSNKLYAIDFYDKTGNNLNNGPQLASYVDRVLKETGAKKVDIVAHSMGGANTLYYIKYLGGGNKIQNVVTLGGANGLVSSTALPGTDPNQKILYTSIYSLNDQIVINSLSRLQGARNIQLYGIGHIGLLSNSQVNGYIKEGLNGGGLNTN
modifications: Esterase (EstB H191 without signal sequence)
B2: Chitinase 19F (SEQ ID NO: 182): Streptomyces coelicolor Chitinase F (Chi19F) (protein)
chain: ASCSSYHAWSADANYNTGDIVRYTDGKAYIAEHANPGYDPLISTWYWDPYACDGGSQTPVGNFVVSEAQFNQMFPGRNSFYTYSGLTAALSAYPGFANTGSDTTKKQEAAAFLANVSHETGGLVYIVEQNTANYPHYCDWNQPYGCPAGQAAYYGRGPIQLSWNFNYKAAGDALGIDLLGNPWLVQNDAAVAWKTGLWYWNTQSGPGTMTPHNAMVNGAGFGQTIRSINGSLECDGKNPAQVQSRVTKYQQFAQILGVSPGGNLYC
modifications: Chitinase F (Chi19F); Streptomyces coelicolor

How the values were obtained:
[1] = tested on: Steinernema feltiae; assay: In-vitro plate assay of Steinernema feltiae juvenile death after direct treatment; format: in vivo; settings: Table 23, 40 μL per well (ILEVO 20 μL), water control 3%
Procedure: To determine the effects of enzymes on an additional soil-dwelling nematode species (Steinernema feltiae), a NemAttack™ package containing approximately 5 million S. feltiae juveniles was purchased from ARBICO Organics. The nematodes arrived already hatched and dispersed within a powder. To prepare the nematodes for use, an aliquot of the dry nematode mixture was rehydrated in water. The liquid nematode mixture was adjusted to a concentration of 20-30 nematode juveniles per 10 μL. The free enzymes Esterase B (SEQ ID NO: 89) and Chitinase 19F (SEQ ID NO: 182) were produced as described in Example 2.
Potato dextrose agar media containing chloramphenicol and chlortetracycline was prepared and added to sterile twenty-four-well cell culture plates (1 mL per well). The plates were divided according to the pre-determined N-value for each treatment (N=12-24). […]
To quantify the treatments' effects on nematode viability, the nematodes were examined under a dissecting microscope at 20× magnification. Initial (T0) values for the number of live juveniles, number of dead juveniles and total number of juveniles were recorded immediately after preparation of each well. […] Approximately 20-22 hours post addition of juveniles, the plates were evaluated, and the number of live juveniles, dead juveniles and total number of juveniles were recorded. […]

[2] = tested on: Diamondback moth (Plutella xylostella); assay: Diet-surface overlay (DSO) bioassay on Diamondback moth; format: in vivo
Procedure: (§1) Diet-surface overlay bioassays are conducted with artificial diet mixes without antibiotics in 1.5 cm^2 cell bioassay trays(s). Artificial diets are commercially available from Southland Products Inc. Diets were prepared by dispersing 0.5 mL of molten diet to each 1.5 cm^2 cell. After solidification, 0.1 mL enzyme treatments were dispersed on top of diet in each cell and the tray was gently rocked in an orbital shaker to spread the liquid uniformly over the diet surface. Trays were placed under clean airflow until the surface of each cell was uniformly dried. One or two 16-cell sections were used per treatment (the number in larvae treated was 16 or 32).
(§2) One healthy first instar larva was placed into each treatment cell, each 16-cell section was covered with a re-sealable lid and incubated at 27° C. and light-dark period of 16:8 hrs. After 7 days, and according to the species, the number of individuals in the following developmental categories was recorded.
(§3) Diamondback moth (Plutella xylostella): Dead Larva (lack of movement), Larva Stage I (≤50% relative size), Larva Stage II (100% relative size, full size), Early Pupa (light green color), Late Pupa (light-dark brown color), and Adult.
(§4) Negative/untreated controls were treated with filtered water and positive controls were treated with lethal doses of Bacillus thuringiensis subsp. Kurstaki (Btk) spores at 1000 ppm.

[3] = tested on: SCN nematodes; assay: Nematode death after foliar spray application on strawberry leaf segments; format: in vivo, Heterodera glycines; settings: 0.6% solution of fermentation broth sprayed on strawberry leaf segments; 20 wells; water only 5%
Procedure: To determine whether a nematicidal enzyme can cause nematode death when sprayed as a foliar treatment, a trial was performed using chitinase 19F (SEQ ID NO: 182). The free enzyme was produced as described in Example 2. A SCN hatchery was set up as described in Example 2, except that no bleach sterilization step was performed. Six days later, the concentration of hatched nematodes was determined. Leaves from Quinault strawberry plants (Fragaria x ananassa) were cut into square sections and placed in the wells of a 24-well plate with the abaxial side up. […] Spray solutions were created with water alone and water plus fermentation broth with chitinase 19F (SEQ ID NO: 182). For the base strain control and chitinase solutions, 0.094 mL of fermentation broth was added to 15 mL of water (0.6% solution) to model a field spray application of 8 fl oz. per acre. Treatments were added to a small spray bottle and each leaf segment was sprayed approximately 3 times. After the leaves had dried, approximately 100 nematodes were added to each leaf segment. To assess the number of nematodes that were alive at the start of the experiment hours, 500 μL of sterile water was added to 4 wells of each treatment, and the leaf segment was washed and removed. The number of alive and dead nematodes were counted for each well, and the average percentage of dead nematodes were calculated for each treatment. […]

[4] = tested on: Btk resistant Diamondback moth; assay: Diet-surface overlay (DSO) bioassay on Btk resistant Diamondback moth; format: in vivo, Plutella xylostella; settings: number of individuals, n = 32, 7 days
Procedure: as §1, §2, §3, §4
However, both neutral proteases reduced the number of individuals reaching adult stage.
The effect of lipase (10× enzyme rate) and free lipases were tested on a Diamondback Moth Btk resistant strain. Free Lipases from Burkholderia cepacia (Bc) and Pseudomonas fluorescens (Pf) were tested along with Lipase (SEQ ID NO: 76) and the results are shown below in Table 45.

[5] = Table 49, esterases, Diamondback moth, number of individuals of n = 32

Row | Molecule | Difference in Percent Death of Nematodes for 0 to 20 Hours [1] | Difference in Percent Death of Nematodes for 0 to 20 Hours ([1]; listed as Esterase B(SEQ ID NO: 89)) [%] | Adult [2, 5] | Early Pupa [2, 5] | Larva Stage I [2, 5] | Larva Stage II [2, 5] | Late Pupa [2, 5] | Dead Larva ([2]; Table 49, esterases, Diamondback moth, number of individuals of n = 32, DSO bioassay, dose per treatment in U/mL Diet) | individuals with delayed larva-pupa development ([2]; text to Table 49, esterases, n = 32) [%] | individuals at larva stage ([2]; text to Table 49: 34% of which were at larva stage) [%] | Average percentage of dead nematodes at 24 hours [3] | Dead Larva ([4]; Table 47, chitinases, rate in mU/mL diet column) | Adult ([4]; Table 47) | Early Pupa ([4]; Table 47) | Larva Stage I ([4]; Table 47) | Larva Stage II ([4]; Table 47) | Late Pupa ([4]; Table 47)
1 | B1 | significantly increased the difference in percentage of S. feltiae juveniles that died | 33 | 0 | 4 | 3 | 8 | 17 | 0 | 47 | 34 | – | – | – | – | – | – | –
2 | B2 | – | – | – | – | – | – | – | – | – | – | increased significantly above the control treatments | 2 | 1 | 4 | 2 | 1 | 22
